From the DeepSol protein solubility set

test: soluble on expression in E. coli; label from the status in PepcDB or PDB records

Soluble on expression in E. coli, soluble:
AAKGTAETKQEKSFVDWLLGKITKEDQFYETDPILRGGDVKSSGSTSGKKGGTTSGKKGTVSIPSKKKNGNGGVFGGLFAKKD
MSLRKNIFFIVFIILCAVSCTEKKSNFINTVHLKGQLLDMGSQNVRMRFDGAASMLGDSRDILLKTDAAGYFDTTFVLKEPTYYTISRNTLYLTPGDDMTIKVTQTNTEAEFSGIGAEANNYMKFRLFPKGGSYLEAGGNLRGDFVSTKALVDSLAAIRMHTLDTLSNVSDAFKKLETARIKADIINSYICYASYSRMFAEVKNEEEMRAKWNEFNVSLTQDVTPLYKEIVNEDMLNVAVVRDVLSYQEDSTLASLWFKDISIPARTTELYACAKIVDNLRNEASEQTVNEAKAFLQTVKNADFATEIEGKIVQASKLLPGQPAIDFEMLDVEGNVKHLADFKGKVIYIDLWATWCGPCIQESPAFEALGKKYVGKDIVFLPVSTDTTTKPWLRYLDGHKKELTQYHSNDVALKESWAIMYIPRFILIDKDFNIVNAYAPRPSSEEIGTLIDSVLNKEGHHHHHH
MMKKIAITCALLSSLVASSVWADAASDLKSRLDKVSSFHASFTQKVTDGSGAAVQEGQGDLWVKRPNLFNWHMTQPDESILVSDGKTLWFYNPFVEQATATWLKDATGNTPFMLIARNQSSDWQQYNIKQNGDDFVLTPKASNGNLKQFTINVGRDGTIHQFSAVEQDDQRSSYQLKSQQNGAVDAAKFTFTPPQGVTVDDQRK

Soluble on expression in E. coli, not soluble:
MSNYEKVYIGTYTNGESRGIYSFNIISDSRKTTAPILSCEIENPTYLTFNMNNKTAYSVIKSGNLGGAASFYVDDRNNHLELLNCKFGYENPPERFSGKQPCYVSLDKTNSYLFSVNYHTSRVDVFPIRNDGSIDTVSSFVIHEGFGPNKERQETSHVHCAVTTPLNDFLCVVDLGTDKIVLYRFDDGILCRFNEFKLKPGCGPRHIIFHPNGKIAYIATELSSEVIVLKYSPLDGSFEELQYVSCLPTDYTGKNGSAAIHISRNSNYLYVSNRGHNSISCFHVDNSTGLLTLNSNTSTYGLSPRDFDLSSSGNLLIAANQDSSNLTIFSVDQVSGNLSKITSDIYVPNPVCVKFYHDKLEHHHHHH
MGSDKIHHHHHHMVLLETNRLRLQTIDIPLLDAASKQDHQAIKELGYETNGEWPNSDFFEAIPYFREILVKNNGTKGFDSWIIVKKDNYEIVGGTGFLGDPDENGMIEIGFATNKSHRRKGYCVEAAQKLINWALSRETVSRITARCEHDNLGSQKTLEKLGFILNHKSAEYKHWIYVTK
MIGKLKKGSSFGGCIRYVTGKDEAKIIASDGVLLGTNAEITQSFELQRQLNPRIKKPVGHIALSFKPEDKPRLTDEFMTKIAIEYMQMMGITKTQFIIIRHHNADNPHCHIVYNRINNESKLISDRNDYRRNEQVTKALKSKYGLTYGTDKSNTNTRKLRNAERAKYEIHNAVKDALKMADSWEKLRSELAKRGVHLEFVYKDKAQTKVQGIRFCKDGYSFKGTQICREYSFGKLNAKFEGTENHVSTRANSAQQYEQGCRKNEQVPFMSENCQDPWDGISSIGLFASANAQTFESFPEDESAKKKKKKRRRGFSL
MHRIMLSGYLKALVDAGILKERRIKPVTLYSVLRRQDMNIYELTGNAIRSSGSKMDGDTALRLLYAILRRPVFLTEVERCGTKKPLNFETIIWERRKDLIRKLAESGIIIPETDMLVVPKDATADNTIDLISTLLGQVIDLKKYTIPEAEKKQKTLDF
MGSDKIHHHHHHMSKAPDFEGLAMFAKVAEERSFAAAARVLGLSVATVSRGVSRLEERLGARLFNRTSRRLALTDFGHRLAERASRLYRDAEDAENAARELSASPRGLVRLAVPMSFGLRWVAPLLPDFFKLYPDVSIDMHLSDAVVDLIGEGFDAALRIAVLPDSSLVARRLCSIAPFIVAAPSYLARHGRPSTPRDLDAHHCLGYAYRPRQDVWHFSNAAGDEEVVTPSGPLRVTNSDALVPTVLAGIAIAELPEFIASEYLADGRLQAILTDWTLPRGALYFVTPSARARPAKVEAVAGFMAAHLSRPSWQPINP
MAHHHHHHMYGGNNLRKFIPLVDIPLLGNKNNLLIFCGKVNFGSKKQKEKVDKETKKFRKFLKISNMKNNDEDEKYEGDINEGDMKKKMKGISGMTRIDYKIYDIKIQEINKNFENKIKKIFDTCLQIDFFNNISILKDKKNIKLCDVAQVVIKSSNLIYFYPYTINDIQKIIHNLKLKDNTWNPTVSNDGQYVILQIQPLSEDVKMKKKKEAKDLFEKIKNDIRNVRYKIRDDIIKNIEGDQWKIVERNKLDNYIKDKMKLIENVYEQSVKNY
